In the supplement of paper PMC5998384:

Columns and labels:
HeLa Kyoto [1] = assay: melting temperature (median over replicates), in situ; higher = more thermally stable
HeLa Kyoto [2] = assay: solubility in G1/S (NP-40 vs SDS abundance) (log2 ratio); higher = more soluble; conditions: cell cycle stage: G1/S
HeLa Kyoto [3] = assay: solubility change mitosis vs G1/S (difference of NP-40 vs SDS log2 ratios) (log2 ratio difference); higher = more soluble in mitosis
HeLa Kyoto [4] = assay: thermal stability score vs G1/S (z-score of summed log2 fold changes over temperatures); higher = more thermally stable than in G1/S
[5] = cell cycle stage: early G1 (4.5 h after nocodazole release)
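For melting temperature (median over replicates), in situ in this document: HeLa Kyoto cells synchronized by double thymidine or nocodazole block, proteins quantified by TMT10plex mass spectrometry, three independent biological replicates.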
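For solubility change mitosis vs G1/S (difference of NP-40 vs SDS log2 ratios) in this document: synchronized HeLa Kyoto cells (double thymidine block for G1/S, nocodazole release for mitosis), protein amounts in NP-40 versus SDS lysates quantified by mass spectrometry, three biological replicates.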
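For solubility in G1/S (NP-40 vs SDS abundance) in this document: HeLa Kyoto cells arrested at G1/S by double thymidine block, proteins quantified by TMT10plex mass spectrometry in mild NP-40 versus SDS extracts, three biological replicates.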
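For thermal stability score vs G1/S (z-score of summed log2 fold changes over temperatures) in this document: synchronized HeLa Kyoto cells, proteins quantified by TMT10plex mass spectrometry, three biological replicates, mitosis taken 0.5 h after nocodazole release, G1/S directly after double thymidine block.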

## MEQLSSANTRFALDLFLALSENNPAGNIFISPFSISSAMAMVFLGTRGNTAAQLSKTFHFNTVEEVHSRFQSLNADINKRGASYILKLANRLYGEKTYNFLPEFLVSTQKTYGADLASVDFQHASEDARKTINQWVKGQTEGKIPELLASGMVDNMTKLVLVNAIYFKGNWKDKFMKEATTNAPFRLNKKDRKTVKMMYQKKKFAYGYIEDLKCRVLELPYQGEELSMVILLPDDIEDESTGLKKIEEQLTLEKLHEWTKPENLDFIEVNVSLPRFKLEESYTLNSDLARLGVQDLFNSSKADLSGMSGARDIFISKIVHKSFVEVNEEGTEAAAATAGIATFCMLMPEENFTADHPFLFFIRHNSSGSILFLGRFSSP [SERPINB1]
HeLa Kyoto [1]; cell cycle stage: G1/S
  melting temperature: 53.2 °C
HeLa Kyoto [1]; cell cycle stage: mitosis
  melting temperature: 53.2 °C
HeLa Kyoto [2]
  solubility in G1/S (log2): 0.121
HeLa Kyoto [3]
  solubility change mitosis (log2): -0.165
HeLa Kyoto [4]; [5]
  thermal stability score: 1.35
HeLa Kyoto [4]; cell cycle stage: mitosis
  thermal stability score: -2.02

## MEQPPAPKSKLKKLSEDSLTKQPEEVFDVLEKLGEGSYGSVFKAIHKESGQVVAIKQVPVESDLQEIIKEISIMQQCDSPYVVKYYGSYFKNTDLWIVMEYCGAGSVSDIIRLRNKTLIEDEIATILKSTLKGLEYLHFMRKIHRDIKAGNILLNTEGHAKLADFGVAGQLTDTMAKRNTVIGTPFWMAPEVIQEIGYNCVADIWSLGITSIEMAEGKPPYADIHPMRAIFMIPTNPPPTFRKPELWSDDFTDFVKKCLVKNPEQRATATQLLQHPFIKNAKPVSILRDLITEAMEIKAKRHEEQQRELEEEEENSDEDELDSHTMVKTSVESVGTMRATSTMSEGAQTMIEHNSTMLESDLGTMVINSEDEEEEDGTMKRNATSPQVQRPSFMDYFDKQDFKNKSHENCNQNMHEPFPMSKNVFPDNWKVPQDGDFDFLKNLSLEELQMRLKALDPMMEREIEELRQRYTAKRQPILDAMDAKKRRQQNF [STK3]
HeLa Kyoto [1]; cell cycle stage: G1/S
  melting temperature: 53 °C
HeLa Kyoto [1]; cell cycle stage: mitosis
  melting temperature: 53.3 °C
HeLa Kyoto [2]
  solubility in G1/S (log2): 0.0428
HeLa Kyoto [3]
  solubility change mitosis (log2): -0.13
HeLa Kyoto [4]; [5]
  thermal stability score: 1.31
HeLa Kyoto [4]; cell cycle stage: mitosis
  thermal stability score: 1.36

## MERKISRIHLVSEPSITHFLQVSWEKTLESGFVITLTDGHSAWTGTVSESEISQEADDMAMEKGKYVGELRKALLSGAGPADVYTFNFSKESCYFFFEKNLKDVSFRLGSFNLEKVENPAEVIRELICYCLDTIAENQAKNEHLQKENERLLRDWNDVQGRFEKCVSAKEALETDLYKRFILVLNEKKTKIRSLHNKLLNAAQEREKDIKQEGETAICSEMTADRDPVYDESTDEESENQTDLSGLASAAVSKDDSIISSLDVTDIAPSRKRRQRMQRNLGTEPKMAPQENQLQEKENSRPDSSLPETSKKEHISAENMSLETLRNSSPEDLFDEI [XRCC4]
HeLa Kyoto [1]; cell cycle stage: G1/S
  melting temperature: 55.2 °C
HeLa Kyoto [1]; cell cycle stage: mitosis
  melting temperature: 54.7 °C
HeLa Kyoto [2]
  solubility in G1/S (log2): 0.0124
HeLa Kyoto [3]
  solubility change mitosis (log2): -0.0112
HeLa Kyoto [4]; [5]
  thermal stability score: -0.551
HeLa Kyoto [4]; cell cycle stage: mitosis
  thermal stability score: -0.497

## MERPQPDSMPQDLSEALKEATKEVHTQAENAEFMRNFQKGQVTRDGFKLVMASLYHIYVALEEEIERNKESPVFAPVYFPEELHRKAALEQDLAFWYGPRWQEVIPYTPAMQRYVKRLHEVGRTEPELLVAHAYTRYLGDLSGGQVLKKIAQKALDLPSSGEGLAFFTFPNIASATKFKQLYRSRMNSLEMTPAVRQRVIEEAKTAFLLNIQLFEELQELLTHDTKDQSPSRAPGLRQRASNKVQDSAPVETPRGKPPLNTRSQAPLLRWVLTLSFLVATVAVGLYAM [HMOX1]
HeLa Kyoto [1]; cell cycle stage: G1/S
  melting temperature: 52.6 °C
HeLa Kyoto [1]; cell cycle stage: mitosis
  melting temperature: 53.9 °C
HeLa Kyoto [2]
  solubility in G1/S (log2): 0.553
HeLa Kyoto [3]
  solubility change mitosis (log2): -0.0689
HeLa Kyoto [4]; [5]
  thermal stability score: 0.266
HeLa Kyoto [4]; cell cycle stage: mitosis
  thermal stability score: 0.9

## MESAAALHFSRPASLLLLLLSLCALVSAQFIVVGPTDPILATVGENTTLRCHLSPEKNAEDMEVRWFRSQFSPAVFVYKGGRERTEEQMEEYRGRTTFVSKDISRGSVALVIHNITAQENGTYRCYFQEGRSYDEAILHLVVAGLGSKPLISMRGHEDGGIRLECISRGWYPKPLTVWRDPYGGVAPALKEVSMPDADGLFMVTTAVIIRDKSVRNMSCSINNTLLGQKKESVIFIPESFMPSVSPCAVALPIIVVILMIPIAVCIYWINKLQKEKKILSGEKEFERETREIALKELEKERVQKEEELQVKEKLQEELRWRRTFLHAVDVVLDPDTAHPDLFLSEDRRSVRRCPFRHLGESVPDNPERFDSQPCVLGRESFASGKHYWEVEVENVIEWTVGVCRDSVERKGEVLLIPQNGFWTLEMHKGQYRAVSSPDRILPLKESLCRVGVFLDYEAGDVSFYNMRDRSHIYTCPRSAFSVPVRPFFRLGCEDSPIFICPALTGANGVTVPEEGLTLHRVGTHQSL [BTN2A1]
HeLa Kyoto [1]; cell cycle stage: G1/S
  melting temperature: 52.7 °C
HeLa Kyoto [1]; cell cycle stage: mitosis
  melting temperature: 53.4 °C
HeLa Kyoto [2]
  solubility in G1/S (log2): -0.062
HeLa Kyoto [3]
  solubility change mitosis (log2): -0.101
HeLa Kyoto [4]; [5]
  thermal stability score: -0.399
HeLa Kyoto [4]; cell cycle stage: mitosis
  thermal stability score: -0.343

## MESGAYGAAKAGGSFDLRRFLTQPQVVARAVCLVFALIVFSCIYGEGYSNAHESKQMYCVFNRNEDACRYGSAIGVLAFLASAFFLVVDAYFPQISNATDRKYLVIGDLLFSALWTFLWFVGFCFLTNQWAVTNPKDVLVGADSVRAAITFSFFSIFSWGVLASLAYQRYKAGVDDFIQNYVDPTPDPNTAYASYPGASVDNYQQPPFTQNAETTEGYQPPPVY [SYNGR2]
HeLa Kyoto [1]; cell cycle stage: G1/S
  melting temperature: 54.9 °C
HeLa Kyoto [1]; cell cycle stage: mitosis
  melting temperature: 56.3 °C
HeLa Kyoto [2]
  solubility in G1/S (log2): 0.192
HeLa Kyoto [3]
  solubility change mitosis (log2): -0.171
HeLa Kyoto [4]; [5]
  thermal stability score: -2
HeLa Kyoto [4]; cell cycle stage: mitosis
  thermal stability score: -3.51
